In PMC7316157 (Journal of the American Chemical Society, 2012):
Where two headings read alike, the source gives them in different places.

Assays:
L-Ac-(FEFE)2-NH2 [1] = assay: ITC
L-Ac-(FEFE)2-NH2 [2] = biological target: T1, L-Ac-(FEFE)2-NH2; assay: ITC
T1 peptide: Ac-FEFEFEFE-NH2

[3] = biological target: the molecule itself; assay: isotope-edited IR spectroscopy
[4] = biological target: the molecule itself; assay: TEM + CD + IR spectroscopy of fibrils

Molecule: D-Ac-(FKFK)2-NH2 (peptide)
- dH (L-Ac-(FEFE)2-NH2 [1]): -31.6 kcal/mol

Molecule: Ac-FKFKFKFK-NH2 [L-Ac-(FKFK)2-NH2]
- dH (L-Ac-(FEFE)2-NH2 [2]): -40.9 ± 0.6 kcal/mol

Molecule: Ac-F(1‑13C)KFEFKF(1‑13C)E-NH2 [L-Ac-(FKFE)2-NH2 doubly 1-13C-labeled at Phe 1/Phe 7]
- binding result [3]: binds

Molecule: Ac-FKFEFKFE-NH2 [L-Ac-(FKFE)2-NH2]
- binding result [4]: binds
